According to US12252531B2, “Methods of screening for high-affinity, isoform-selective TGFβ1 inhibitors” (Scholar Rock, Inc., priority 2018, dated 2025):
Positions count from the first letter of the chain named. Blank lines part the entries; values can stand above or below the molecule they belong to.

Key:
[1] = Safety/toxicology study in rats; conditions: rat, in vivo
Source text: Animals were sacrificed on Day 29 and necropsies performed.
Both halves were submitted for embedding.

[2] = tested on: TGFβ downstream tonic signaling; conditions: non-diseased rat BAL; cited from earlier work
[3] = in vivo, cited from earlier work
[4] = tested on: intratumoral immune cells in MBT2 tumors; experiment: MBT2 tumor immune contexture (flow cytometry, IHC, qPCR); format: in vivo, mouse; conditions: MBT2 tumors (FIG. 30F)
Experimental: Each study group contained 12 mice with MBT2 tumors as described herein. Ab6-treatment group received the antibody weekly, on day 1 and day 8, at 10 mg/kg. Anti-PD1 treatment group was treated biweekly at 10 mg/kg per injection, on days 1, 4, 8 and 11, total of 20 mg/kg per week. […] On day 13, tumors were collected from the mice as shown above.
Flow cytometric analysis: Tumor-associated immune cell subsets were also analyzed by tumor flow cytometry in MBT-2 tumors. Briefly, tumors were excised and weighed prior to dissociation using the Tumor Dissociation Kit for gentleMACS (Miltenyi). Samples were filtered through a 70 μm cell strainer to remove any aggregates. […] Flow cytometry was performed on a Attune NxT (ThermoFisher) and analyzed with FlowJo (BD Bioscience).
For immunohistochemical analysis, tumors from six animals were cut in halves and fixed. […] FIG. 30E provides the quantitation of the IHC data, shown as % of CD8-positive cells of total nuclei. […]

[5] = tested on: hLTBP1-proTGFβ1, hLTBP3-proTGFβ1, hGARP-proTGFβ1 and hLRRC33-proTGFβ1; experiment: MSD-SET, binding profile and bias across the four human LLCs; conditions: ratio of average KD cell-associated / matrix-associated
Source text: Solution Equilibrium Titration (SET): The SET is an assay whereby binding between two molecules (such as an antigen and an antibody that binds the antigen) can be measured at equilibrium in a solution. For example, Meso-Scale Discovery (“MSD”)-based SET, or MSD-SET, is a useful mode of determining dissociation constants for particularly high-affinity protein-protein interactions at equilibrium, such as picomolar-affinity antibodies binding to their antigens (see, for example: Ducata et al. (2015) J Biomolecular Screening 20(10): 1256-1267). The SET-based assays are particularly useful for determining KD values of antibodies with sub-nanomolar (e.g., picomolar) affinities.
(§1) Solution equilibrium titration (“SET”) is an assay whereby binding between two molecules (such as an antigen and an antibody that binds the antigen) can be measured at equilibrium in a solution. For example, Meso-Scale Discovery (“MSD”)-based SET, or MSD-SET, is a useful mode of determining dissociation constants for particularly high-affinity protein-protein interactions at equilibrium (see, for example: Ducata et al. (2015) J Biomolecular Screening 20(10): 1256-1267). The SET-based assays are particularly useful for determining KD values of antibodies with sub-nanomolar (e.g., picomolar) affinities.
For solution equilibrium titration-based binding assays, protein complexes that comprise one of the presenting molecules such as those shown above may be employed as antigen (presenting molecule-TGFβ1 complex, or an LLC). Test antibodies are allowed to form antigen-antibody complex in solution. Antigen-antibody reaction mixtures are incubated to allow an equilibrium to be reached; the amount of the antigen-antibody complex present in the assay reactions can be measured by suitable means well known in the art. As compared to BLI-based assays, SET-based assays are less affected by on/off rates of the antigen-antibody complex, allowing sensitive detection of very high affinity interactions.

[6] = tested on: Cell-associated proTGFb1 (hGARP, hLRRC33); experiment: BLI (OCTET), average over cell-associated complexes; format: binding, human; conditions: average KD of (E) and (F), read-out: (G) Cell AVRG
Source text: (§2) Column (A) of the table lists monoclonal antibodies with discrete amino acid sequences. […] Columns (B), (D), (E) and (F) provide affinities of each of the listed antibodies, measured in KD. […] Average KD values of (B) and (C) are shown in the corresponding column (D), which collectively represents affinities of the antibodies to ECM- or matrix-associated proTGFβ1 complexes. Similarly, Average KD values of (E) and (F) are shown in the corresponding column (G), which collectively represents affinities of the antibodies to cell-surface or cell-associated proTGFβ1 complexes. Finally, relative ratios between the average KD values from columns (D) and (G) are expressed as “fold bias” in column (H). Thus, the greater the number of column (H) is, the greater bias exists for the particular antibody, when comparing binding preferences of the antibody for matrix-associated complexes and cell-surface complexes. This is one way of quantitatively representing and comparing inherent bias of antibodies to their target complexes. Such analyses may be useful in guiding the selection process for a candidate antibody for particular therapeutic use.
(§3) The concept of “uniformity” or lack of bias is further illustrated in Table 8. Average KD values between the two matrix-associated and cell-associated complexes are calculated, respectively (see columns (D) and (G)). These average KD values can then be used to ask whether bias in binding activities exists between complexes associated with matrix vs. complexes associated with cell surface (e.g., immune cells). Bias may be expressed as “fold-difference”in the average KD values, as illustrated in Table 8.

[7] = tested on: LTBP1-proTGFβ1, LTBP3-proTGFβ1, GARP-proTGFβ1 and LRRC33-proTGFβ1 complexes; experiment: BLI (OCTET), binding profile and bias across the four complexes; set-up: species or system human; conditions: ratio of average KD cell-associated / matrix-associated
Source text: as §2, §3

[8] = tested on: Cell-associated proTGFβ1 (hGARP, hLRRC33); experiment: MSD-SET, average over cell-associated complexes; format: binding, human; conditions: average of (E) and (F), read-out: (G) Cell AVRG
Source text: as §2, §1

[9] = biological target: Matrix-associated proTGFβ1 (hLTBP1, hLTBP3); experiment: MSD-SET, average over matrix-associated complexes; format: binding, human; conditions: average of (B) and (C), read-out: (D) ECM AVRG
Source text: as §2, §1

[10] = biological target: Matrix-associated proTGFb1 (hLTBP1, hLTBP3); experiment: BLI (OCTET), average over matrix-associated complexes; format: binding, human; conditions: average KD of (B) and (C), read-out: (D) ECM AVRG
Source text: as §2, §3

Molecule: c1ccc(-c2nn3c(c2-c2ccnc4cc(OCCN5CCOCC5)ccc24)CCC3)nc1 [LY2109761]
bone findings [1]: macroscopic abnormally shaped sternum and microscopic increased thickness of the hypertrophic zone in the endplate of the sternum and physis of the femur and tibia
incidence/severity of bone findings compared with pan-TGFβ antibody ([1]; po): higher incidence and/or severity
inhibition of TGFβ downstream tonic signaling [2]: shown to inhibit TGFβ downstream tonic signaling

Molecule: GC1008: human analog of 1D11, pan-TGFβ antibody
Exposure: DN Cmax ([3]; human): DN Cmax~(350 ng/mL)mg
previously reported adverse events (CTCAE grade) [3]: leukocytosis (grade 3), fatigue (grade 3), hypoxia (grade 3), asystole (grade 5), leukopenia (grade 1), recurrent, transient, tender erythematous, nodular skin lesions, suppurative dermatitis, and herpes zoster

B1: Ab6-mIgG1: chimeric antibody with the human V domains of Ab6 fused to mouse IgG1/kappa constant domains (protein)
heavy chain: EVQLVESGGGLVQPGGSLRLSCTASGFTFSSFSMDWVRQAPGKGLEWVSYISPSADTIYYADSVKGRFTISRDNAKNTLYLQMNSLRAEDTAVYYCARGVLDYGDMLMPWGQGTLVTVSS
light chain: DIQMTQSPSSLSASVGDRVTITCQASQDITNYLNWYQQKPGKAPKLLIYDASNLETGVPSRFSGSGSGTDFTFTISSLQPEDIATYYCQQADNHPPWTFGGGTKVEIK
phospho-SMAD3 staining near tumor vascular endothelium (IHC) [4]: much diminished

(H) G/D (fold bias) [5]: 1.60 fold
(H) G/D (fold bias) [7]: 2.467 fold
Kd [9]: 0.032 nM
Kd [10]: 0.242 nM
B2: Ab32: proTGFβ1 antibody; VH SEQ ID NO: 140, VL SEQ ID NO: 15 (antibody, V domains shown)
VH: B1 heavy chain with T23A, D35N, L101W, Y103M, M108D
VL: B1 light chain
Kd [6]: 0.597 nM
Kd [8]: 0.051 nM

(H) G/D (fold bias) [5]: 3.00 fold
(H) G/D (fold bias) [7]: 2.083 fold
Kd [9]: 0.009 nM
Kd [10]: 0.145 nM
B3: Ab33: proTGFβ1 antibody; VH SEQ ID NO: 141, VL SEQ ID NO: 15 (antibody, V domains shown)
VH: B1 heavy chain with T23A, D35N, R98H, M108D
VL: B1 light chain
Kd [6]: 0.302 nM
Kd [8]: 0.027 nM
